Experimental data reported in the DeepSol protein solubility set.

Experiment: soluble on expression in E. coli; label from the status in PepcDB or PDB records
With “MSLRIVIAGAGEVGYHLAMSLAPNHDVIIIEKDVSRFERVSELDVVAINGNAANMKVLRDAGVERADVFLAVTGNDEVNLLSGLAAKKVGAKNVIVRVENPEYVDRPIVKEHPLGYDVLICPQLSLAQEAARLIGIPGAIEVVTFSGGKVEMIELQVMEGSKADGKAIADLYLPQNVVIASIYRNGHIEIPRGDTVLRAGDRVAIVSKTEDVEMLKGIFGPPVTRRVTIFGAGTIGSYTAKILAKGMTSVKLIESSMERCEALSGELEGVRIVCGDATDIEFLIEEEIGKSDAVLAATESDEKNLLISLLSKNLGARIAIAKVEKREYVKLFEAVGVDVALNPRSVTYNEVSKLLRTMRIETLAEIEGTAVVEVVVRNTRLVGKALKDLPLPKDAIIGAIVRGNECLIPRGDTTIEYEDRLLVFAKWDEIEKIEEIFREGHHHHHH” the “soluble on expression in E. coli” value was “soluble”.
In the case of “MSLRKEPSSQLELFLNILHGFSTTITSETLNKISEKFLDMVNGSINPSLSLKNKITIVFQDCLTNGFQSANLSKLLENLNSIDVVEVLSEFIHCDLKVGAFSVIDLLDTDIFLSVLSMESLKQTLSIMDKFIIDILLVFTIVDINYEVFAEKLSKLITLHFNISLWLQVYQIDKLLAISETFGHVTKYNYGAQLKSYSDITDFTTLMVGFVKNSPTAEPPIFTRAFSDFILNGEDLTCAKQFLHFVAKPYHVSKDPVEELLYALSLFKCNEYDASIEIFLANDFSDELSLPKYLEVTENHVWYNLLHAINTKDKPAYYYELSVLCSKASSYANALKTIKKSISLDGTRADQLIQYLDTLIVFGDYKEVLDVLRLEQKVLDISLREKYYYTLLSDQKYSEMFTATLLQECYNANISNGSILLCVSDYKIIASILSSQVSLTDWNSYKKLFSFRILNQHERKACEELYDYVLFGSNDEVKEKCLLLISNVLKTFSDAKDQWFISYPGQIIHLHELNDKMNKCSKEGHHHHHH”, the “soluble on expression in E. coli” value is reported as “not soluble”.
In the case of “MSLRKLGPVTIDPRRHDAVLFDTTLDATQELVRQLQEVGVGTGVFGSGLDVPIVAAGRLAVRPGRCVVVSAHSAGVTAARESGFALIIGVDRTGCRDALRRDGADTVVTDLSEVSVRTGDRRMSQLPDALQALGLADGLVARQPAVFFDFDGTLSDIVEDPDAAWLAPGALEALQKLAARCPIAVLSGRDLADVTQRVGLPGIWYAGSHGFELTAPDGTHHQNDAAAAAIPVLKQAAAELRQQLGPFPGVVVEHKRFGVAVHYRNAARDRVGEVAAAVRTAEQRHALRVTTGREVIELRPDVDWDKGKTLLWVLDHLPHSGSAPLVPIYLGDDITDEDAFDVVGPHGVPIVVRHTDDGDRATAALFALDSPARVAEFTDRLARQLREAPEGHHHHHH”, the “soluble on expression in E. coli” value is reported as “soluble”.
For “MSLRKRLTQLFPFLLPVRRIQRKLCFYTKMYLDRNHYAKAKAPEFLPFCIYETKSKLLNENTGMDIKYQENKVFNLRLAAEPVNGLLIRPGETFSFWQRVRYAEKNERYKDGLCVVNDELVTVPGGGLCHLSNLLFWLFLHTPLTIVERHAHEIKDFPSPDEDEPDGVDATIHEGWLDLKVKNDTNLTFQIELSIDGPYIYGRIFMDQAKGYSYEVVNRDKRFLQKEGKIFERVSVCRQVIDNKSKQVISENMLYTDVFEIGYPLPEGTAIAEEGHHHHHH”, the “soluble on expression in E. coli” value was “soluble”.
In the case of “MSLRLKIGSPVFFKQVRPGLHGKPFTLYKFRTMTDERDSKGNLLPDEVRLTKTGRLIRKLSIDELPQLLNVLKGDLSLVGPRPLLMDYLPLYTEKQARRHEVKPGITGWAQINGRNAISWEKKFELDVWYVDNWSFFLDLKILCLTVRKVLVSEGIQQTNHVTAERFTGSGDVSSEGHHHHHH”, the “soluble on expression in E. coli” value is reported as “not soluble”.
With “MSLRLRTLKDLDQAALLLARACALLLDDNTDVPDLRQVIFKCVPKNRLAESVSKVNELARPQNNNFHDEMVEQYGRVKRFLPAVLRDLHFRAAPAGEHVLAAIHYLAELNGSKKRILDDAPEHIITGPWKRLVYDAEGRIQRAGYSLCLLERLQDALRRRDIWLENSDRWGDPREKLLQGEEWQTQRIPVCRALGHPVDGRKGVQQLAIQLDETWKAVASRFEKNAEVHICNEGKYPSLTISCLEKQEEPPSLLRLNNRIKQLLPPVDLTELLLEIDAQTGFTHEFAHVSESGARAQDLHISLCAVLMAEACNIGLEPLIKHNIPALTRHRLSWVKQNYLRAETLVSANARLVDFQSTLELAGRWGGGEVASADGMRFVTPVKTINSGSNRKYFGSGRGITWYNFVSDQYSGFHGIVVPGTLRDSIFVLEGLLEQQTGLNPVEIMTDTAGSSDIIFGLFWLLGYQFSPRLADAGEAVFWRVNKSANYGVLDKLARGYADLSKAESQWDEMMRTAGSLKLGTIHASELIRSLLKSSRPSGLAQAIMEVGRVNKTLYLLNYIDDEDYRRRILTQLNRGEGRHAVARAICYGQRGEIRKRYREGQEDQLGALGLVTNAVVLWNTLYMEEALSWMRRNGEEIIDEDIARLSPLMHGHINMLGHYTFTLPEDILKGELRALNEGHHHHHH” the “soluble on expression in E. coli” value was “not soluble”.
